Source: US6525022B1, “Receptor specific atrial natriuretic peptides” (Genentech, Inc., priority 1993, dated 2003)
Values belong to the molecule of their own block, whether it stands above or below them. Where a SMILES comes first, the peptide text is derived from it. Bridges are numbered along the chain shown (N, C = ends). Where no end group is shown, it is not given here. [ ]: non-standard residue; d: D form. Mpa = O=C(O)CCS

Assays:
[1] = target: human NEP (hNEP), endopeptidase 24.11 (Homo sapiens, UniProt P08473); experiment: Degradation of ANF variants by human NEP, half-life by HPLC; conditions: isolated human NEP (endopeptidase 24.11) in HEPES buffer, Half-Life (min.), FIG. 7: ANF variants 32 nM/ml, NEP 0.45 μg/ml
Procedure: The half-life of various ANF variants was measured according to the following procedure.
ANF Solution: An accurately weighed amount of ANF or variant thereof was diluted with HEPES buffer (5 ml of 1 M HEPES Buffer and 0.1 ml of Tween 20 diluted to a 100 ml volume with DI water) to make a 0.5 mg/ml solution.
hNEP/HEPES Solution: 7.5 μl of a 1 mg/ml solution of hNEP (see U.S. Pat. No. 4,960,700) is dissolved in 992.5 μl of HEPES buffer (as described above) and vortex mixed. The resulting mixture is stored in a silylated Eppendorf tube and periodically checked for activity against an ANF peptide standard.
Assay conditions: 150 μl of an ANF solution in the HEPES buffer is diluted with 820 μl HEPES buffer and vortex mixed (1 sec). Careful note of the time is taken as 30 μl of the hNEP/HEPES solution is added and the solution is vortex mixed for 1 sec. and analyzed by periodic removal of constant volume aliquots by the HPLC autosampler. A 2.5 cm×50 cm, C-18 reversed-phase column (15 micron, 300 Å]) was used and elution was achieved by using a shallow gradient of increasing acetonitrile. The elution conditions consisted of a 10% to 50% acetonitrile (containing 0.1% TFA) gradient at 0.5% min.^−1. The aqueous phase was 0.1% TFA in water. The peak area of the ANP peptide is recorded at these periodic intervals and a half-life is determined from these values.

hNPR-A = target: T1, hNPR-A (Homo sapiens, UniProt P16066); experiment: Competition binding to hNPR-A (Table I, FIG. 5)
T1 sequence (P16066 33-1061): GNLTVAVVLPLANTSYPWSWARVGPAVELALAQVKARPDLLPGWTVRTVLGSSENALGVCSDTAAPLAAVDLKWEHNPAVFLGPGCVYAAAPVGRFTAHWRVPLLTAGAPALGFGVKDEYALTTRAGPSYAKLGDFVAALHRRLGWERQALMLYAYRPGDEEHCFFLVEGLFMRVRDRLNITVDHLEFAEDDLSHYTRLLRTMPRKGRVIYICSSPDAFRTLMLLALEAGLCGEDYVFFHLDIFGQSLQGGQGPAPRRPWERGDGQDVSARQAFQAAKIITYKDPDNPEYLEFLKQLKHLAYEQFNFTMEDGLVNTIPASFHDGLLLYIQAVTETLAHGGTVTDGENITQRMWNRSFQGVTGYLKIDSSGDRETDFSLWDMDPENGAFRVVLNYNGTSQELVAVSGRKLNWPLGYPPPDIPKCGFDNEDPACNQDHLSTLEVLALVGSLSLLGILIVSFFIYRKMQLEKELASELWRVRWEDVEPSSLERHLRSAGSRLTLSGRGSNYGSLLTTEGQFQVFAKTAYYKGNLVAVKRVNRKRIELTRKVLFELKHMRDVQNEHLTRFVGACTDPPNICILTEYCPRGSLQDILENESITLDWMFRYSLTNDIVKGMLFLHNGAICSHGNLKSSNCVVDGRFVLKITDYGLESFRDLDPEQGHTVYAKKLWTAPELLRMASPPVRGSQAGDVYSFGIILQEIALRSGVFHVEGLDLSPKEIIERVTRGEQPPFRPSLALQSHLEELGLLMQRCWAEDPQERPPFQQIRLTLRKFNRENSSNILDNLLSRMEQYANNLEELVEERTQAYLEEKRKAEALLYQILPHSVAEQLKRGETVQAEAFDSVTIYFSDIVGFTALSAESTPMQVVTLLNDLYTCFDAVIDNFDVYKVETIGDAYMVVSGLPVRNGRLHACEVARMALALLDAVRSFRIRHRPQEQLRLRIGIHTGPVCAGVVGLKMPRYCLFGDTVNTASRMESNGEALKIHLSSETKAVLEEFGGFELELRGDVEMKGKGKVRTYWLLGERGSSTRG

hNPR-C = target: T2, hNPR-C (Homo sapiens, UniProt P17342); experiment: Competition binding to hNPR-C (Table I, FIG. 5)
T2 sequence (P17342 27-541): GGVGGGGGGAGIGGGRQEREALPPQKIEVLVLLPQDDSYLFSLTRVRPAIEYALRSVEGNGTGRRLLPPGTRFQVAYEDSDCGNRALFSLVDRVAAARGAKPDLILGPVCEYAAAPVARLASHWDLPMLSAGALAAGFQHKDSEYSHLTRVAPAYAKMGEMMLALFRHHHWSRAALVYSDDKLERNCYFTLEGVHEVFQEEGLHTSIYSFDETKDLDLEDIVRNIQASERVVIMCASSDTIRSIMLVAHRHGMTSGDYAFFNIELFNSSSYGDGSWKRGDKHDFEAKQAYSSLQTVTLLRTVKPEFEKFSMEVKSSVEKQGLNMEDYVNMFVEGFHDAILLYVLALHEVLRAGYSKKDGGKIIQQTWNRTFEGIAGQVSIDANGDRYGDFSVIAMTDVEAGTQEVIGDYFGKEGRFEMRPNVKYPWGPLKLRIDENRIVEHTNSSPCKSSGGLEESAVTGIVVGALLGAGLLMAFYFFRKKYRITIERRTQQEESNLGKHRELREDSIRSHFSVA

[2] = target: human neutral endopeptidase 24.11 (human) (UniProt P08473); experiment: cell-based or functional assay
[3] = target: human neutral endopeptidase 24.11 (human, UniProt P08473 2-750, limits assumed); experiment: cell-based or functional assay
human neutral endopeptidase 24.11, sequence (P08473 2-750 limits assumed): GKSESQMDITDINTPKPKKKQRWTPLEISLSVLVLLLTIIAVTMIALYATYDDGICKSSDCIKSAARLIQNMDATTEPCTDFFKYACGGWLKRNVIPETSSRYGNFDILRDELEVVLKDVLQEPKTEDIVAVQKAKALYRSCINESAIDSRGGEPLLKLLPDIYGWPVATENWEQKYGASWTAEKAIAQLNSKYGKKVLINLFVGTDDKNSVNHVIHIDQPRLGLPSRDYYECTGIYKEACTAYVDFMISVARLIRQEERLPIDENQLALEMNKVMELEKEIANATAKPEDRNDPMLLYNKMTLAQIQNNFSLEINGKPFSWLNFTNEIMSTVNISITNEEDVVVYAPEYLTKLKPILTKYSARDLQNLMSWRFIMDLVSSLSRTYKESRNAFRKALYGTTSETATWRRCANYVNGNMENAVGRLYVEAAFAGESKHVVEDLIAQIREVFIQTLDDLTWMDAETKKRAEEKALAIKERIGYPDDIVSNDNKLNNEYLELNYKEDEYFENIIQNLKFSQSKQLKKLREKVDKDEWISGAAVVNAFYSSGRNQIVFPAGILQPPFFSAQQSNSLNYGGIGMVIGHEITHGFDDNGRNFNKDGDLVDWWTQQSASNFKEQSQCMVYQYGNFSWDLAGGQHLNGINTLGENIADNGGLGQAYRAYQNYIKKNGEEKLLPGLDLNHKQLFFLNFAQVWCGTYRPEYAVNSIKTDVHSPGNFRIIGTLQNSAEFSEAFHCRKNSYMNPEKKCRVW

human NEP (hNEP), endopeptidase 24.11, sequence (P08473 whole entry): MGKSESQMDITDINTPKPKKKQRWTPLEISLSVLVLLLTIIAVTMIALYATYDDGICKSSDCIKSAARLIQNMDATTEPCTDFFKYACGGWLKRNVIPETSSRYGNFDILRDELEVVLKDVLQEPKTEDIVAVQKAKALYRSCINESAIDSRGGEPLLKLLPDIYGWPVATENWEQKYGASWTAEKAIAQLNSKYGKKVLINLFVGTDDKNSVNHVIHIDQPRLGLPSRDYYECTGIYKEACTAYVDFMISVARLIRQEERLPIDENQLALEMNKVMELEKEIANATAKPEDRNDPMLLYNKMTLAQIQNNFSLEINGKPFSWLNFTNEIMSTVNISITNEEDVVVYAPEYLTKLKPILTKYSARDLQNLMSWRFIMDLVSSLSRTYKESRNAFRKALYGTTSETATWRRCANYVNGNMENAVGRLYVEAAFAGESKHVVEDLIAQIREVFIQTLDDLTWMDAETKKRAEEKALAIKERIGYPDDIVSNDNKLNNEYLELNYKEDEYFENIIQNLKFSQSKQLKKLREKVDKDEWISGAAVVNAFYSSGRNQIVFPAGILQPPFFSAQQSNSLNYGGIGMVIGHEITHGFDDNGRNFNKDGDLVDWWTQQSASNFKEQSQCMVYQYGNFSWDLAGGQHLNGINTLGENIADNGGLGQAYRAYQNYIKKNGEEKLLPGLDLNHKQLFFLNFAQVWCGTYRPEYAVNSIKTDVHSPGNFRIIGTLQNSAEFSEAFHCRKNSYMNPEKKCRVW

Molecule: CC[C@H](C)[C@@H]1NC(=O)[C@H](CCCNC(=N)N)NC(=O)[C@H](CC(=O)O)NC(=O)[C@H](CCSC)NC(=O)[C@H](CO)NC(=O)[C@H](CCCCN)NC(=O)CNC(=O)[C@H](Cc2ccccc2)NC(=O)[C@@H](NC(=O)[C@H](CO)NC(=O)[C@H](CO)NC(=O)[C@H](CCCNC(=N)N)NC(=O)[C@H](CCCNC(=N)N)NC(=O)[C@H](CC(C)C)NC(=O)[C@@H](N)CO)CSSC[C@@H](C(=O)N[C@@H](CC(N)=O)C(=O)N[C@@H](CO)C(=O)N[C@@H](Cc2ccccc2)C(=O)N[C@@H](CCCNC(=N)N)C(=O)N[C@@H](Cc2ccc(O)cc2)C(=O)O)NC(=O)CNC(=O)[C@H](CC(C)C)NC(=O)CNC(=O)[C@H](CO)NC(=O)[C@H](CCC(N)=O)NC(=O)[C@H](C)NC(=O)CNC1=O [ANF 60] (H-SLRRSSCFGKSMDRIGAQSGLGCNSFRY-OH; disulfide 7-23; C-terminus assumed)
half-life at 32 nM/ml [1]: 5.07 h | IC50 (hNPR-A; read-out: Binding Affinity IC50(pM) hNPR-A): 112 pM | IC50 (hNPR-C; read-out: Binding Affinity IC50(pM) hNPR-C): 5980 pM

Molecule: ANF 28 (peptide)
Half-Life [2]: 9.52 h

Molecule: ANF 40 (peptide)
Half-Life [2]: 9.95 h

Further lines, results first:

Effect of substitution on NPR-A binding (hNPR-A; relative to wild type): negligible effect | Reduction of NPR-C affinity (hNPR-C; relative to wild type): about 150 fold
Molecule: hANF(1-28) G16R (SLRRSSCFGGRMDRIRAQSGLGCNSFRY) [hANF with the single substitution of arginine for glycine at position 16]

Half-Life [3]: 1.77 h
Molecule: [Mpa]F[dA]GDIDRIRAQSGLGCNSFRY (ends and bridges not checked) [ANF 92]
